Results taken from patent US20060281090A1 (University of Washington, published 2006).

B1: purified recombinant Ad35 fiber knob domain (other)
chain: SINTLWTGINPPPNCQIVENTNTNDGKLTLVLVKNGGLVNGYVSLVGVSDTVNQMFTQKTANIQLRLYFDSSGNLLTEESDLKIPLKNKSSTATSETVASSKAFMPSTTAYPFNTTTRDSENYIHGICYYMTSYDRSLFPLNISIMLNSRMISSNVAYAIQFEWNLNASESPESNIATLTTSPFFFSYITEDDN
notes: also called Ad35 knob; biotin-conjugated Ad35 fiber knob domain
B2: purified recombinant Ad5 fiber knob domain (other)
chain: DKLTLWTTPAPSPNCRLNAEKDAKLTLVLTKCGSQILATVSVLAVKGSLAPISGTVQSAHLIIRFDENGVLLNNSFLDPEYWNFRNGDLTEGTAYTNAVGFMPNLSAYPKSHGKTAKSNIVSQVYLNGDKTKPVTLTITLNGTQETGDTTPSAYSMSFSWDWSGHNYINEIFATSSYTFSYIAQE
notes: also called Ad5 knob

Columns and labels:
[1] = target: recombinant human coagulation factor IX (human) (UniProt P00740); test: cell-based or functional assay
recombinant human coagulation factor IX (human), sequence (P00740 47-461 limits assumed): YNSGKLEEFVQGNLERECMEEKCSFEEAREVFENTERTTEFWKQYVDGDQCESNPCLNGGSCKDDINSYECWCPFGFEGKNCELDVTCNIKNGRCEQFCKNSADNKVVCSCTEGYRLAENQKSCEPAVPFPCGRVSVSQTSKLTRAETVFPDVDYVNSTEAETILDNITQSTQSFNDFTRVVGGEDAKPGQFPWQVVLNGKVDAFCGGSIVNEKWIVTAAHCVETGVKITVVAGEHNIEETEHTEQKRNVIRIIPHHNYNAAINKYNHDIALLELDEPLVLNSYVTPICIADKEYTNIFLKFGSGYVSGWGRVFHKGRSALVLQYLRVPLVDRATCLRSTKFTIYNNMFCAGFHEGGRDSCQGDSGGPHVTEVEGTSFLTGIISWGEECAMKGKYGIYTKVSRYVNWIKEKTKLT

[2] = target: T1, recombinant human coagulation factor IX (human, UniProt P00740 47-461); test: SPR, FIX immobilized on the sensor, knob in solution
T1 construct: also called FIX; human FIX
T1 sequence (P00740 47-461 limits assumed): as above

Row | Molecule | reporter gene activities in HSPG-expressing CHO-K1 cells infected with FIX compared to infection without FIX [1] | transduction of primary human hepatocytes (luciferase activity) with FIX compared to without [1] | binding result [2]
1 | Ad5F* virus (long-shafted Ad5-based vector, fiber knob aa 477 Y to A, C-terminal 6-His) (from UniProt P11818 1-581) | > 45 fold | > 14 fold | 
2 | Ad5/35L virus (Ad5 capsid, long Ad5 fiber shaft, Ad35 fiber knob domain) (from UniProt P11818 1-399) | > 45 fold |  | 
3 | B1 |  |  | binds
4 | B2 |  |  | binds
